Measurements from patent publication US20150344570A1 (published 2015).

T1: FcγRIIa R (human, UniProt P12318 34-217)
T1 construct: extracellular domain; also called FcgRIIa R type; 2aR
T1 sequence (looked up): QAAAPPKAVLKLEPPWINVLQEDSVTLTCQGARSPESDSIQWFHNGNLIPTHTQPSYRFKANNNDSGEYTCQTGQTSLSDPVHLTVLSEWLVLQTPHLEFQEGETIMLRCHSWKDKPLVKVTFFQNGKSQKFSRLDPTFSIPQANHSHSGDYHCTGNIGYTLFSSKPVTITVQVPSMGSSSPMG


molecular target: T1, FcγRIIa R; assay: SPR (Biacore), captured antibody, FcγR as analyte; relative binding activity

Row | Binder | He/Con_2aR
1 | GpH7-A5/GpH7-B3 variant G237_20W/GpL16-k0 (antibody, human IgG1, kappa, also called He Ab G237_20W) heavy 1: not shown heavy 2: not shown light: DIVMTQSPLSLPVTPGEPASISCQASESLVHSNRNTYLHWYLQKPGQSPQLLIYKVSNRFSGVPDRFSGSGSGTDFTLKISRVEAEDVGVYYCSQNTHVPPTFGQGTKVEIERTVAAPSVFIFPPSDEQLKSGTASVVCLLNNFYPREAKVQWKVDNALQSGNSQESVTEQDSKDSTYSLSSTLTLSKADYEKHKVYACEVTHQGLSSPVTKSFNRGEC | 138 % (GpH7-A5/GpH7-B3/GpL16-k0 = 100)
2 | GpH7-A5/GpH7-B3 variant H268_01G/GpL16-k0 (antibody, human IgG1, kappa, also called He Ab H268_01G) heavy 1: not shown heavy 2: not shown light: DIVMTQSPLSLPVTPGEPASISCQASESLVHSNRNTYLHWYLQKPGQSPQLLIYKVSNRFSGVPDRFSGSGSGTDFTLKISRVEAEDVGVYYCSQNTHVPPTFGQGTKVEIERTVAAPSVFIFPPSDEQLKSGTASVVCLLNNFYPREAKVQWKVDNALQSGNSQESVTEQDSKDSTYSLSSTLTLSKADYEKHKVYACEVTHQGLSSPVTKSFNRGEC | 124 % (GpH7-A5/GpH7-B3/GpL16-k0 = 100)
3 | GpH7-A5/GpH7-B3 variant H268_05P/GpL16-k0 (antibody, human IgG1, kappa, also called He Ab H268_05P) heavy 1: not shown heavy 2: not shown light: DIVMTQSPLSLPVTPGEPASISCQASESLVHSNRNTYLHWYLQKPGQSPQLLIYKVSNRFSGVPDRFSGSGSGTDFTLKISRVEAEDVGVYYCSQNTHVPPTFGQGTKVEIERTVAAPSVFIFPPSDEQLKSGTASVVCLLNNFYPREAKVQWKVDNALQSGNSQESVTEQDSKDSTYSLSSTLTLSKADYEKHKVYACEVTHQGLSSPVTKSFNRGEC | 106 % (GpH7-A5/GpH7-B3/GpL16-k0 = 100)
4 | GpH7-A5/GpH7-B3 variant H268_15Y/GpL16-k0 (antibody, human IgG1, kappa, also called He Ab H268_15Y) heavy 1: not shown heavy 2: not shown light: DIVMTQSPLSLPVTPGEPASISCQASESLVHSNRNTYLHWYLQKPGQSPQLLIYKVSNRFSGVPDRFSGSGSGTDFTLKISRVEAEDVGVYYCSQNTHVPPTFGQGTKVEIERTVAAPSVFIFPPSDEQLKSGTASVVCLLNNFYPREAKVQWKVDNALQSGNSQESVTEQDSKDSTYSLSSTLTLSKADYEKHKVYACEVTHQGLSSPVTKSFNRGEC | 110 % (GpH7-A5/GpH7-B3/GpL16-k0 = 100)
5 | GpH7-A5/GpH7-B3 variant H268_12R/GpL16-k0 (antibody, human IgG1, kappa, also called He Ab H268_12R) heavy 1: not shown heavy 2: not shown light: DIVMTQSPLSLPVTPGEPASISCQASESLVHSNRNTYLHWYLQKPGQSPQLLIYKVSNRFSGVPDRFSGSGSGTDFTLKISRVEAEDVGVYYCSQNTHVPPTFGQGTKVEIERTVAAPSVFIFPPSDEQLKSGTASVVCLLNNFYPREAKVQWKVDNALQSGNSQESVTEQDSKDSTYSLSSTLTLSKADYEKHKVYACEVTHQGLSSPVTKSFNRGEC | 105 % (GpH7-A5/GpH7-B3/GpL16-k0 = 100)
6 | GpH7-A5/GpH7-B3 variant H268_11K/GpL16-k0 (antibody, human IgG1, kappa, also called He Ab H268_11K) heavy 1: not shown heavy 2: not shown light: DIVMTQSPLSLPVTPGEPASISCQASESLVHSNRNTYLHWYLQKPGQSPQLLIYKVSNRFSGVPDRFSGSGSGTDFTLKISRVEAEDVGVYYCSQNTHVPPTFGQGTKVEIERTVAAPSVFIFPPSDEQLKSGTASVVCLLNNFYPREAKVQWKVDNALQSGNSQESVTEQDSKDSTYSLSSTLTLSKADYEKHKVYACEVTHQGLSSPVTKSFNRGEC | 100 % (GpH7-A5/GpH7-B3/GpL16-k0 = 100)
7 | GpH7-A5/GpH7-B3 variant H268_03V/GpL16-k0 (antibody, human IgG1, kappa, also called He Ab H268_03V) heavy 1: not shown heavy 2: not shown light: DIVMTQSPLSLPVTPGEPASISCQASESLVHSNRNTYLHWYLQKPGQSPQLLIYKVSNRFSGVPDRFSGSGSGTDFTLKISRVEAEDVGVYYCSQNTHVPPTFGQGTKVEIERTVAAPSVFIFPPSDEQLKSGTASVVCLLNNFYPREAKVQWKVDNALQSGNSQESVTEQDSKDSTYSLSSTLTLSKADYEKHKVYACEVTHQGLSSPVTKSFNRGEC | 109 % (GpH7-A5/GpH7-B3/GpL16-k0 = 100)

Continued, values first:

Row | He/Con_2aR | Binder
8 | 113 % (GpH7-A5/GpH7-B3/GpL16-k0 = 100) | GpH7-A5/GpH7-B3 variant H268_20W/GpL16-k0 (antibody, human IgG1, kappa, also called He Ab H268_20W) heavy 1: not shown heavy 2: not shown light: DIVMTQSPLSLPVTPGEPASISCQASESLVHSNRNTYLHWYLQKPGQSPQLLIYKVSNRFSGVPDRFSGSGSGTDFTLKISRVEAEDVGVYYCSQNTHVPPTFGQGTKVEIERTVAAPSVFIFPPSDEQLKSGTASVVCLLNNFYPREAKVQWKVDNALQSGNSQESVTEQDSKDSTYSLSSTLTLSKADYEKHKVYACEVTHQGLSSPVTKSFNRGEC
9 | 105 % (GpH7-A5/GpH7-B3/GpL16-k0 = 100) | GpH7-A5/GpH7-B3 variant I332_14T/GpL16-k0 (antibody, human IgG1, kappa, also called He Ab I332_14T) heavy 1: not shown heavy 2: not shown light: DIVMTQSPLSLPVTPGEPASISCQASESLVHSNRNTYLHWYLQKPGQSPQLLIYKVSNRFSGVPDRFSGSGSGTDFTLKISRVEAEDVGVYYCSQNTHVPPTFGQGTKVEIERTVAAPSVFIFPPSDEQLKSGTASVVCLLNNFYPREAKVQWKVDNALQSGNSQESVTEQDSKDSTYSLSSTLTLSKADYEKHKVYACEVTHQGLSSPVTKSFNRGEC
10 | 104 % (GpH7-A5/GpH7-B3/GpL16-k0 = 100) | GpH7-A5/GpH7-B3 variant I336_18N/GpL16-k0 (antibody, human IgG1, kappa, also called He Ab I336_18N) heavy 1: not shown heavy 2: not shown light: DIVMTQSPLSLPVTPGEPASISCQASESLVHSNRNTYLHWYLQKPGQSPQLLIYKVSNRFSGVPDRFSGSGSGTDFTLKISRVEAEDVGVYYCSQNTHVPPTFGQGTKVEIERTVAAPSVFIFPPSDEQLKSGTASVVCLLNNFYPREAKVQWKVDNALQSGNSQESVTEQDSKDSTYSLSSTLTLSKADYEKHKVYACEVTHQGLSSPVTKSFNRGEC
11 | 109 % (GpH7-A5/GpH7-B3/GpL16-k0 = 100) | GpH7-A5/GpH7-B3 variant I332_06M/GpL16-k0 (antibody, human IgG1, kappa, also called He Ab I332_06M) heavy 1: not shown heavy 2: not shown light: DIVMTQSPLSLPVTPGEPASISCQASESLVHSNRNTYLHWYLQKPGQSPQLLIYKVSNRFSGVPDRFSGSGSGTDFTLKISRVEAEDVGVYYCSQNTHVPPTFGQGTKVEIERTVAAPSVFIFPPSDEQLKSGTASVVCLLNNFYPREAKVQWKVDNALQSGNSQESVTEQDSKDSTYSLSSTLTLSKADYEKHKVYACEVTHQGLSSPVTKSFNRGEC
12 | 106 % (GpH7-A5/GpH7-B3/GpL16-k0 = 100) | GpH7-A5/GpH7-B3 variant I336_06M/GpL16-k0 (antibody, human IgG1, kappa, also called He Ab I336_06M) heavy 1: not shown heavy 2: not shown light: DIVMTQSPLSLPVTPGEPASISCQASESLVHSNRNTYLHWYLQKPGQSPQLLIYKVSNRFSGVPDRFSGSGSGTDFTLKISRVEAEDVGVYYCSQNTHVPPTFGQGTKVEIERTVAAPSVFIFPPSDEQLKSGTASVVCLLNNFYPREAKVQWKVDNALQSGNSQESVTEQDSKDSTYSLSSTLTLSKADYEKHKVYACEVTHQGLSSPVTKSFNRGEC
13 | 147 % (GpH7-A5/GpH7-B3/GpL16-k0 = 100) | GpH7-A5/GpH7-B3 variant K326_07I/GpL16-k0 (antibody, human IgG1, kappa, also called He Ab K326_07I) heavy 1: not shown heavy 2: not shown light: DIVMTQSPLSLPVTPGEPASISCQASESLVHSNRNTYLHWYLQKPGQSPQLLIYKVSNRFSGVPDRFSGSGSGTDFTLKISRVEAEDVGVYYCSQNTHVPPTFGQGTKVEIERTVAAPSVFIFPPSDEQLKSGTASVVCLLNNFYPREAKVQWKVDNALQSGNSQESVTEQDSKDSTYSLSSTLTLSKADYEKHKVYACEVTHQGLSSPVTKSFNRGEC
14 | 110 % (GpH7-A5/GpH7-B3/GpL16-k0 = 100) | GpH7-A5/GpH7-B3 variant I336_08L/GpL16-k0 (antibody, human IgG1, kappa, also called He Ab I336_08L) heavy 1: not shown heavy 2: not shown light: DIVMTQSPLSLPVTPGEPASISCQASESLVHSNRNTYLHWYLQKPGQSPQLLIYKVSNRFSGVPDRFSGSGSGTDFTLKISRVEAEDVGVYYCSQNTHVPPTFGQGTKVEIERTVAAPSVFIFPPSDEQLKSGTASVVCLLNNFYPREAKVQWKVDNALQSGNSQESVTEQDSKDSTYSLSSTLTLSKADYEKHKVYACEVTHQGLSSPVTKSFNRGEC
15 | 141 % (GpH7-A5/GpH7-B3/GpL16-k0 = 100) | GpH7-A5/GpH7-B3 variant K326_03V/GpL16-k0 (antibody, human IgG1, kappa, also called He Ab K326_03V) heavy 1: not shown heavy 2: not shown light: DIVMTQSPLSLPVTPGEPASISCQASESLVHSNRNTYLHWYLQKPGQSPQLLIYKVSNRFSGVPDRFSGSGSGTDFTLKISRVEAEDVGVYYCSQNTHVPPTFGQGTKVEIERTVAAPSVFIFPPSDEQLKSGTASVVCLLNNFYPREAKVQWKVDNALQSGNSQESVTEQDSKDSTYSLSSTLTLSKADYEKHKVYACEVTHQGLSSPVTKSFNRGEC
16 | 135 % (GpH7-A5/GpH7-B3/GpL16-k0 = 100) | GpH7-A5/GpH7-B3 variant K326_04F/GpL16-k0 (antibody, human IgG1, kappa, also called He Ab K326_04F) heavy 1: not shown heavy 2: not shown light: DIVMTQSPLSLPVTPGEPASISCQASESLVHSNRNTYLHWYLQKPGQSPQLLIYKVSNRFSGVPDRFSGSGSGTDFTLKISRVEAEDVGVYYCSQNTHVPPTFGQGTKVEIERTVAAPSVFIFPPSDEQLKSGTASVVCLLNNFYPREAKVQWKVDNALQSGNSQESVTEQDSKDSTYSLSSTLTLSKADYEKHKVYACEVTHQGLSSPVTKSFNRGEC
